Patent publication US20070243569

Legend:
[1] = tested on: T1, non-phosphorylated pKID-Erk
T1 sequence: DKNADGWIDAASPA

[2] = tested on: T2, non-phosphorylated pKID-PKA
T2 sequence: DKNADGWIDRASLA

[3] = tested on: T3, non-phosphorylated pKID-PKC
T3 sequence: DKNADGWIDAASLK

Substance: Protein Kinase A (PKA)
- extent of peptide phosphorylation by HPLC [1]: under identical conditions pKID-Erk (FIG. 9) and pKID-PKC (FIG. 10) showed no evidence of phosphorylation
- extent of peptide phosphorylation by HPLC (conversion to phosphorylated peptide) [2]: pKID-PKA was enzymatically phosphorylated to >95% conversion in 12 hrs by PKA
- phosphorylation in HeLa nuclear extract with added PKA after 3 h, conversion by HPLC [2]: Phosphorylation proceeded at 75% conversion as measured by HPLC
- extent of peptide phosphorylation by HPLC [3]: under identical conditions pKID-Erk (FIG. 9) and pKID-PKC (FIG. 10) showed no evidence of phosphorylation
